# From article PMC7617869 (Nature Structural & Molecular Biology, 2025)
# Legend:
# Conditions in all cases: both partners purified
# [1] = molecular target: T1, His-tagged BRISC (wild type) (human, UniProt P46736 1-316; Q15018 1-415; Q9NXR7 1-383; Q9NWV8 1-329); experiment: other fluorescence titration; spectral shift (Dianthus); labelled His–BRISC first incubated with 100 μM FX-171-C (1% DMSO) 15 min, then with SHMT2(A285T) 30 min at 25 °C
# [2] = molecular target: T1, His-tagged BRISC (wild type); experiment: other fluorescence titration; spectral shift (Dianthus); labelled His–BRISC first incubated with 100 μM JMS-175-2 (1% DMSO) 15 min, then with SHMT2(A285T) 30 min at 25 °C
# [3] = molecular target: T1, His-tagged BRISC (wild type); experiment: other fluorescence titration; spectral shift (Dianthus); 12.5 nM RED-Tris-NTA-labelled His–BRISC, SHMT2(A285T) 46 μM to 1.4 nM; 25 mM HEPES pH 7.5, 150 mM NaCl, 1 mM DTT, 0.005% Tween-20; 25 °C; no compound
binder,measurement,setting,value
"SHMT2ΔN(A285T) (residues 18–504) (enzyme, serine hydroxymethyltransferase 2 (SHMT2), residues 18-504; also called SHMT2(A285T); serine hydroxymethyltransferase 2) QLVRMAIRAQHSNAAQTQTGEANRGWTGQESLSDSDPEMWELLQREKDRQCRGLELIASENFCSRAALEALGSCLNNKYSEGYPGKRYYGGAEVVDEIELLCQRRALEAFDLDPAQWGVNVQPYSGSPANLAVYTALLQPHDRIMGLDLPDGGHLTHGYMSDVKRISATSIFFESMPYKLNPKTGLIDYNQLALTARLFRPRLIIAGTSAYARLIDYARMREVCDEVKAHLLADMAHISGLVAAKVIPSPFKHADIVTTTTHKTLRGTRSGLIFYRKGVKAVDPKTGREIPYTFEDRINFAVFPSLQGGPHNHAIAAVAVALKQACTPMFREYSLQVLKNARAMADALLERGYSLVSGGTDNHLVLVDLRPKGLDGARAERVLELVSITANKNTCPGDRSAITPGGLRLGAPALTSRQFREDDFRRVVDFIDEGVNIGLEVKSKTAKLQDFKSFLLKDSETSQRLANLRQRVEQFARAFPMPGFDEH",KD after incubation of BRISC with FX-171-C,[1],3.6 ± 1.8 µM
same,KD after incubation of BRISC with JMS-175-2,[2],0.7 ± 0.3 µM
same,Kd,[3],400 ± 100 nM
